This is an account of results in patent US20240166755A1, “CHIMERIC ANTIGEN RECEPTORS TARGETING CANCER” (University of Southern California, priority 2016, published 2024).

The test system of test [1] is Jurkat cells stably expressing MPL and GLuc. In words: GLuc cell death assay, Jurkat-MPL-GLuc target cells. Particulars: T cells, puromycin selected, E:T 10:1, 4 hours.
Test [2] concerns MPL-expressing HEL.92.1.7 (HEL) cells. In words: Jurkat-NFAT-EGFP reporter assay, co-culture with HEL cells (Table 25). In kind it is cell-based, human. Particulars: FACS. The source says: (§1) Cells were subsequently co-cultured with MPL-expressing HEL.92.1.7 (HEL) cells. […] CAR construct with HEL cells. The experiment was repeated by co-culturing the Jurkat-NFAT-EGFP cells with either RAJI cells, which have weak MPL expression, or with RAJI-MPL cells that were engineered to ectopically express human MPL receptor.
In general terms: Reporter assays use an easily measured gene product as a stand-in for the process of interest.

Test [3] relates to HEL cells stably expressing GLuc. In words: GLuc cell death assay, HEL-GLuc target cells. Particulars: for GLuc activity (lysis of target cells): T cells, puromycin selected, E:T 10:1, 4 hours.
Description: The blood samples to isolate Peripheral blood mononuclear cells (PBMCs) were obtained from healthy de-identified adult donors. PBMC were isolated from buffy coats by Ficoll-Hypaque gradient centrifugation and re-suspended in XVIVO medium (Lonza) supplanted with 10 ng/ml soluble anti-CD3, 10 ng/ml soluble anti-CD28 and 100 IU recombinant human-IL2. […] The PBMC expressing the indicated CARs and uninfected PBMC were co-cultured with HEL-GLuc target cells for 4 h and lysis of target cells measured by the single-step homogenous GLuc assay by injecting 0.5× CTZ assay buffer as described above.
Cells were selected with puromycin and expanded.
Cells were subsequently co-cultured overnight with HEL.92.1.7 cells that had been engineered to express GLuc.
Test [4] relates to RAJI-MPL cells. The test is described as follows: Jurkat-NFAT-EGFP reporter assay, co-culture with RAJI-MPL or RAJI-vector cells (Table 25). Type of test: cell-based, human. The settings on record: RAJI-MPL cells compared with RAJI-vector cells.
Description: as §1

B1: CD8SP-12E10-(vL-vH)-Myc-CD28z-T2A-PAC(031615-S03): CAR construct targeting MPL, 12E10 scFv, CD28 costimulatory domain (protein)
chain: MALPVTALLLPLALLLHAARPDQVQLQQSGPGLVKPSETLSLTCTVSGDSISSYYWSWIRQPPGKGLEWIGYIYYSGSTNYNPSLKSRVTISVDTSKSQFSLKLSSVTAADTAVYYCARGRYFDVWGRGTMVTSSGGGGSGGGGSGGGGSSSYVLTQPPSVSGSPGQSITISCTGTSSDVGGYNYVSWYQQHPGKAPKLMIYEGSKRPSGVSNRFSGSKSGNTASLTISGLQAEDEADYYCSSYTTRSTRVFGGGTKLTVLGAAATREQKLISEEDLKIEVMYPPPYLDNEKSNGTIIHVKGKHLCPSPLFPGPSKPFWVLVVVGGVLACYSLLVTVAFIIFWVRSKRSRLLHSDYMNMTPRRPGPTRKHYQPYAPPRDFAAYRSRVKFSRSADAPAYQQGQNQLYNELNLGRREEYDVLDKRRGRDPEMGGKPRRKNPQEGLYNELQKDKMAEAYSEIGMKGERRRGKGHDGLYQGLSTATKDTYDALHMQALPPRSSGSGEGRGSLLTCGDVEENPGPHMTEYKPTVRLATRDDVPRAVRTLAAAFADYPATRHTVDPDRHIERVTELQELFLTRVGLDIGKVWVADDGAAVAVWTTPESVEAGAVFAEIGPRMAELSGSRLAAQQQMEGLLAPHRPKEPAWFLATVGVSPDHQGKGLGSAVVLPGVEAAERAGVPAFLETSAPRNLPFYERLGFTVTADVEVPEGPRTWCMTRKPGA
modifications: listed as DNA
Consider B1, for which, in test [1], the “GLuc activity (lysis of target cells)” value is listed as “stronger”.

B2: CD8SP-MPL-161-(vL-vH)-Myc-BBz-T2A-PAC(021015-R07): CAR targeting MPL: 161 scFv, Myc tag, CD8 hinge/TM, 41BB, CD3z, T2A, puromycin resistance (protein)
chain: MALPVTALLLPLALLLHAARPDDIQMTQSSSSFSVSLGDRVTITCMASEDIYIRLAWYQQKPGNAPRLLISAATSLETGVPSRFSGSGSGKDYTLSITSLQTEDVGTYYCQQYWSSPWTFGGGTKLEINGGGGSGGGGSGGGGSDVQLQESGPGLVKPSQSLSLTCTVTGYSITSDYTWNWIRQFPGNKLEWMGYITYSGSTSYNPSLKSRNSITRDTSKNQFFLQLNSVTTEDTATYYCARLGRRYTMDYWGQGTSVTVSSTREQKLISEEDLAKPTTTPAPRPPTPAPTIASQPLSLRPEACRPAAGGAVHTRGLDFACDIYIWAPLAGTCGVLLLSLVITLYCKRGRKKLLYIFKQPFMRPVQTTQEEDGCSCRFPEEEEGGCELRVKFSRSADAPAYQQGQNQLYNELNLGRREEYDVLDKRRGRDPEMGGKPRRKNPQEGLYNELQKDKMAEAYSEIGMKGERRRGKGHDGLYQGLSTATKDTYDALHMQALPPRSSGSGEGRGSLLTCGDVEENPGPHMTEYKPTVRLATRDDVPRAVRTLAAAFADYPATRHTVDPDRHIERVTELQELFLTRVGLDIGKVWVADDGAAVAVWTTPESVEAGAVFAEIGPRMAELSGSRLAAQQQMEGLLAPHRPKEPAWFLATVGVSPDHQGKGLGSAVVLPGVEAAERAGVPAFLETSAPRNLPFYERLGFTVTADVEVPEGPRTWCMTRKPGA
modifications: listed as DNA
notes: CAR targeting MPL: 161 scFv, Myc tag, CD8 hinge/TM, 41BB, CD3z, T2A, puromycin resistance
With B2, the “EGFP expression (NFAT-EGFP reporter)” value in test [2] and in test [4] was “strongest” in each case. The “killing of HEL-GLuc cells” value in test [3] (CAR-expressing PBMC, 4 h, versus uninfected PBMC) was “increased killing”.

B3: CD8SP-AB317-(vL-vH)-Myc-CD28z-T2A-PAC(031615-T04): CAR construct targeting MPL, AB317 scFv, CD28 costimulatory domain (protein)
chain: MALPVTALLLPLALLLHAARPDIVLTQSPASLAVSLGQSVTISCRASESVEYYGTSLMQWYQQKPGQPPKLLIYGASNVESGVPARFSGSGSGTDFSLNIHPVEEDDIAMYFCQQSRKVPWTFGGGTKLEIKGGGGSGGGGSGGGGSEVKLVESGGGLVKPGGSRKLSCAASGFTFSSYTMSWVRQTPAKRLEWVATISSGSSTIYYADTVKGRFTISRDNAKNTLFLQMTSLRSEDTAMYYCARRWFLDCWGQGTTLTVSSTREQKLISEEDLKIEVMYPPPYLDNEKSNGTIIHVKGKHLCPSPLFPGPSKPFWVLVVVGGVLACYSLLVTVAFIIFWVRSKRSRLLHSDYMNMTPRRPGPTRKHYQPYAPPRDFAAYRSRVKFSRSADAPAYQQGQNQLYNELNLGRREEYDVLDKRRGRDPEMGGKPRRKNPQEGLYNELQKDKMAEAYSEIGMKGERRRGKGHDGLYQGLSTATKDTYDALHMQALPPRSSGSGEGRGSLLTCGDVEENPGPHMTEYKPTVRLATRDDVPRAVRTLAAAFADYPATRHTVDPDRHIERVTELQELFLTRVGLDIGKVWVADDGAAVAVWTTPESVEAGAVFAEIGPRMAELSGSRLAAQQQMEGLLAPHRPKEPAWFLATVGVSPDHQGKGLGSAVVLPGVEAAERAGVPAFLETSAPRNLPFYERLGFTVTADVEVPEGPRTWCMTRKPGA
modifications: listed as DNA
Turning to B3, the “GLuc activity (lysis of target cells)” value in test [3] and in test [1] was “stronger” each time.

B4: CD8SP-MPL-VB22Bw4-(vL-vH)-Myc-CD28z-T2A-PAC(031615-B06): CAR construct targeting MPL, VB22Bw4 scFv, CD28 costimulatory domain (protein)
chain: MALPVTALLLPLALLLHAARPDDIVMTQSPLSLPVTPGEPASISCRSSKSLLHSNGNTYLYWFLQKPGQSPQLLIYRMSNLASGVPDRFSGSGSGTDFTLKISRVEAEDVGVYYFMQHIEYPFTFGQGTKLEIKGGGGSGGGGSGGGGSQVQLVQSGPEVKKPGASVKVSCKASGYTFTNSWMNWVRQRPGKGLEWIGRIYPGDGETIYNGKFRVRVTITADESTSTAYMQLSSLRSEDTAVYYCARGYDDYSFAYWGQGTTVTVSSTREQKLISEEDLKIEVMYPPPYLDNEKSNGTIIHVKGKHLCPSPLFPGPSKPFWVLVVVGGVLACYSLLVTVAFIIFWVRSKRSRLLHSDYMNMTPRRPGPTRKHYQPYAPPRDFAAYRSRVKFSRSADAPAYQQGQNQLYNELNLGRREEYDVLDKRRGRDPEMGGKPRRKNPQEGLYNELQKDKMAEAYSEIGMKGERRRGKGHDGLYQGLSTATKDTYDALHMQALPPRSSGSGEGRGSLLTCGDVEENPGPHMTEYKPTVRLATRDDVPRAVRTLAAAFADYPATRHTVDPDRHIERVTELQELFLTRVGLDIGKVWVADDGAAVAVWTTPESVEAGAVFAEIGPRMAELSGSRLAAQQQMEGLLAPHRPKEPAWFLATVGVSPDHQGKGLGSAVVLPGVEAAERAGVPAFLETSAPRNLPFYERLGFTVTADVEVPEGPRTWCMTRKPGA
modifications: listed as DNA
On to B4, for which the “GLuc activity (lysis of target cells)” value in test [1] is “modest”.

B5: CD8SP-161-(vL-vH)-Myc-CD28z-T2A-PAC(021715-Z07): CAR targeting MPL: 161 scFv with CD28 hinge, transmembrane and cytosolic domains and CD3z (protein)
chain: MALPVTALLLPLALLLHAARPDDIQMTQSSSSFSVSLGDRVTITCMASEDIYIRLAWYQQKPGNAPRLLISAATSLETGVPSRFSGSGSGKDYTLSITSLQTEDVGTYYCQQYWSSPWTFGGGTKLEINGGGGSGGGGSGGGGSDVQLQESGPGLVKPSQSLSLTCTVTGYSITSDYTWNWIRQFPGNKLEWMGYITYSGSTSYNPSLKSRNSITRDTSKNQFFLQLNSVTTEDTATYYCARLGRRYTMDYWGQGTSVTVSSTREQKLISEEDLKIEVMYPPPYLDNEKSNGTIIHVKGKHLCPSPLFPGPSKPFWVLVVVGGVLACYSLLVTVAFIIFWVRSKRSRLLHSDYMNMTPRRPGPTRKHYQPYAPPRDFAAYRSRVKFSRSADAPAYQQGQNQLYNELNLGRREEYDVLDKRRGRDPEMGGKPRRKNPQEGLYNELQKDKMAEAYSEIGMKGERRRGKGHDGLYQGLSTATKDTYDALHMQALPPRSSGSGEGRGSLLTCGDVEENPGPHMTEYKPTVRLATRDDVPRAVRTLAAAFADYPATRHTVDPDRHIERVTELQELFLTRVGLDIGKVWVADDGAAVAVWTTPESVEAGAVFAEIGPRMAELSGSRLAAQQQMEGLLAPHRPKEPAWFLATVGVSPDHQGKGLGSAVVLPGVEAAERAGVPAFLETSAPRNLPFYERLGFTVTADVEVPEGPRTWCMTRKPGA
modifications: listed as DNA
notes: CAR targeting MPL: 161 scFv with CD28 hinge, transmembrane and cytosolic domains and CD3z
In the case of B5, the “EGFP expression (NFAT-EGFP reporter)” value in test [2] and in test [4] was “strongest” each time. The “GLuc activity (lysis of target cells)” value in test [3] and in test [1] was “stronger” each time.

B6: CD8SP-178-(vL-vH)-Myc-CD28z-T2A-PAC(031615-R04): CAR construct targeting MPL, 178 scFv, CD28 costimulatory domain (protein)
chain: MALPVTALLLPLALLLHAARPDIVMTQAAPSIPVTPGESVSISCRSDKSLLHSNGNTYLFWFLQRPGQSPQLLIYRMSNLASGVPDRFSGSGSGTAFTLRISGVEAEDVGVYYCMQHLEYPYTFGGGTKLEIKGGGGSGGGGSGGGGSQVQLQQSGPELVKPGASVKMSCKASGYAFSSSWLNWVRQRPGKGLEWIGRIYPGDGENHYNGKFKGKATLTADKSSSTGYMQLSSLTSEDSAVYFCASYYEGGYWGQGTLITVSATREQKLISEEDLKIEVMYPPPYLDNEKSNGTIIHVKGKHLCPSPLFPGPSKPFWVLVVVGGVLACYSLLVTVAFIIFWVRSKRSRLLHSDYMNMTPRRPGPTRKHYQPYAPPRDFAAYRSRVKFSRSADAPAYQQGQNQLYNELNLGRREEYDVLDKRRGRDPEMGGKPRRKNPQEGLYNELQKDKMAEAYSEIGMKGERRRGKGHDGLYQGLSTATKDTYDALHMQALPPRSSGSGEGRGSLLTCGDVEENPGPHMTEYKPTVRLATRDDVPRAVRTLAAAFADYPATRHTVDPDRHIERVTELQELFLTRVGLDIGKVWVADDGAAVAVWTTPESVEAGAVFAEIGPRMAELSGSRLAAQQQMEGLLAPHRPKEPAWFLATVGVSPDHQGKGLGSAVVLPGVEAAERAGVPAFLETSAPRNLPFYERLGFTVTADVEVPEGPRTWCMTRKPGA
modifications: listed as DNA
Take B6: the “GLuc activity (lysis of target cells)” value in test [3] and in test [1] was “modest” throughout.
